# T1: FcgRIIaR (human, UniProt P12318 34-217)
# T1 construct: extracellular domain; also called FcγRIIa R; FcγRIIa type R; not shown: His tag at the C terminus
# T1 sequence (looked up): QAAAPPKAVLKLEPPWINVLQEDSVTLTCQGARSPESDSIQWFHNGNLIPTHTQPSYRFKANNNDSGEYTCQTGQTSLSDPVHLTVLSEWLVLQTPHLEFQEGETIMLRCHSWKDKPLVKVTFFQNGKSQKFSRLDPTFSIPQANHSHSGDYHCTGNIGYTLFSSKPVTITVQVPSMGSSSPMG
# T2: FcgRIIaH (human, UniProt P12318 34-217)
# T2 construct: extracellular domain; also called FcγRIIa H; FcγRIIa type H; not shown: His tag at the C terminus
# T2 sequence (looked up): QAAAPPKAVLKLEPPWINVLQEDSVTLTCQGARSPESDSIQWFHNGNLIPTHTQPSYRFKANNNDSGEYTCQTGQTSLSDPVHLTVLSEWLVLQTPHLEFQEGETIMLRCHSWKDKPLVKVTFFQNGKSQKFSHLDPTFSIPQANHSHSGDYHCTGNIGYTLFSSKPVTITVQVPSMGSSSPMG
# T3: FcgRIIb (human, UniProt P31994 43-217)
# T3 construct: extracellular domain; also called FcγRIIb; 2b; not shown: His tag at the C terminus
# T3 sequence (looked up): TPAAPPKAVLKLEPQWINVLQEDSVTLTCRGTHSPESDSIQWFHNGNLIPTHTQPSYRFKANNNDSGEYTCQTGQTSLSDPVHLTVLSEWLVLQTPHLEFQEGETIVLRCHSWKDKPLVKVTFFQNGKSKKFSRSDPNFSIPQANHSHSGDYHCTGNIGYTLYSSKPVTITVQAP
# Columns and labels:
# Experiment in all cases: SPR (Biacore); KD of H240-Kn033/H240-Hl033/L73-k0 divided by KD of the variant
# FcgRIIaR = biological target: T1, FcgRIIaR
# Method: (§1) Next, the amino acid at position 330 was examined. The A330M alteration has been introduced into H240-Hl076 of H240-Kn125/H240-Hl076/L73-k0. […] L73-k0 was used as the common antibody L chain. Binding of the produced variants to FcgRIa, FcgRIIaR, FcgRIIaH, FcgRIIb, FcgRIIIaF, and FcgRIIIaV was measured according to the method of Reference Example 8.
# (§2) Analysis of interaction between objective antibody and the FcγR was carried out using Biacore T100 (GE Healthcare), Biacore T200, Biacore A100, and Biacore 4000. HBS-EP+ (GE Healthcare) was used as the running buffer, and the measurement temperature was set to 25° C. Chips produced by immobilizing the antigen peptide by the amine coupling method to a Series S sensor Chip CM5 (GE Healthcare), chips produced by allowing preliminarily biotinylated antigen peptides to interact with and immobilize onto a Series S Sensor Chip SA (certified) (GE Healthcare), chips produced by immobilizing Protein L (ACTIGEN, BioVision) to Series S Sencor Chip CM5 (GE Healthcare), or chips produced by immobilizing Protein A/G (Thermo Scientific) to Series S Sencor Chip CM5 (GE Healthcare) were used. Antibodies of interest were captured onto these chips, and allowed to interact to each FcγR diluted with running buffer. To regenerate and repeatedly use the chip, the antibodies captured onto the chip were washed off by reacting 10 mM glycine-HCl, pH 1.5.
# FcgRIIaH = biological target: T2, FcgRIIaH
# Method: as §1, §2
# FcgRIIIaV = biological target: T4, FcgRIIIaV (human, UniProt P08637 17-208)
# T4 construct: extracellular domain; Polymorphic site after J. Clin. Invest; also called FcγRIIIa V; 3aV; not shown: His tag at the C terminus
# Method: as §1, §2
# FcgRIIb = biological target: T3, FcgRIIb
# Method: as §1, §2
# FcgRIIIaF = biological target: T5, FcgRIIIaF (human, UniProt P08637 17-208)
# T5 construct: extracellular domain; Polymorphic site after J. Clin. Invest; also called FcγRIIIa F; 3aF; not shown: His tag at the C terminus
# Method: as §1, §2
# T4 sequence (P08637 17-208 F176V limits assumed): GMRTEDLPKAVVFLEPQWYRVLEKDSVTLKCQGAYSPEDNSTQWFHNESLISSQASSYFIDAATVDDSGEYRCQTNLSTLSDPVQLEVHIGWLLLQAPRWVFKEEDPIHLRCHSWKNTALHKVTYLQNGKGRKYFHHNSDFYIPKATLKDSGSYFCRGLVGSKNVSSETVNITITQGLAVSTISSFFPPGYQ
# T5 sequence (P08637 17-208): as the sequence (P08637 17-208 F176V limits assumed) above, with V160F counted along it
fold 2aR (FcgRIIaR) [fold],fold 2aH (FcgRIIaH) [fold],fold 3aV (FcgRIIIaV) [fold],fold 2b (FcgRIIb) [fold],fold 3aF (FcgRIIIaF) [fold],Binder
25.5,11.3,7.1,8.7,13.8,"H240-Kn037/H240-Hl036/L73-k0 (antibody, human IgG1, kappa, It says both H chains have G236A/S239D/I332E) heavy 1: QDQLVQSGAEVKKPGASVKVSCKASGFNIKDTYIQWVRQAPGQGLEWMGRIDPLRKQTKYREKFEGRVTITADTSTNTAYMELSSLRSEDTAVYYCVRSGREFDYWGQGTLVTVSSASTKGPSVFPLAPSSKSTSGGTAALGCLVKDYFPEPVTVSWNSGALTSGVHTFPAVLQSSGLYSLSSVVTVPSSSLGTQTYICNVNHKPSNTKVDKKVEPKSCDKTHTCPPCPAPELLAGPDVFLFPPKPKDTLMISRTPEVTCVVVDVSHEDPEVKFNWYVDGVEVHNAKTKPREEQYNSTYRVVSVLTVLHQDWLNGKEYKCKVSNKALPAPEEKTISKAKGQPREPQVCTLPPSRDELTKNQVSLWCLVKGFYPSDIAVEWESNGQPENNYKTTPPVLDSDGSFFLYSKLTVDKSRWQQGNVFSCSVMHEALHNHYTQKSLSLSP heavy 2: QDQLVQSGAEVKKPGASVKVSCKASGFNIKDTYIQWVRQAPGQGLEWMGRIDPLRKQTKYREKFEGRVTITADTSTNTAYMELSSLRSEDTAVYYCVRSGREFDYWGQGTLVTVSSASTKGPSVFPLAPSSKSTSGGTAALGCLVKDYFPEPVTVSWNSGALTSGVHTFPAVLQSSGLYSLSSVVTVPSSSLGTQTYICNVNHKPSNTKVDKKVEPKSCDKTHTCPPCPAPELLAGPDVFLFPPKPKDTLMISRTPEVTCVVVDVSHEDPEVKFNWYVDGVEVHNAKTKPREEQYNSTYRVVSVLTVLHQDWLNGKEYKCKVSNKALPAPEEKTISKAKGQPREPQVYTLPPSRCELTKNQVSLSCAVKGFYPSDIAVEWESNGQPENNYKTTPPVLDSDGSFFLVSKLTVDKSRWQQGNVFSCSVMHEALHNHYTQKSLSLSP light: DIQMTQSPSSLSASVGDRVTITCRASQDIHKYIAWYQQKPGQAPRLLIQYTSTLQPGVPSRFSGSGSGTDYTFTISSLQPEDIATYYCLQYEQLRTFGGGTKVEIKRTVAAPSVFIFPPSDEQLKSGTASVVCLLNNFYPREAKVQWKVDNALQSGNSQESVTEQDSKDSTYSLSSTLTLSKADYEKHKVYACEVTHQGLSSPVTKSFNRGEC"
1.2,0.7,6.5,2.5,20.7,"H240-Kn204/H240-Hl211/L73-k0 (antibody, human IgG1, kappa) heavy 1: QDQLVQSGAEVKKPGASVKVSCKASGFNIKDTYIQWVRQAPGQGLEWMGRIDPLRKQTKYREKFEGRVTITADTSTNTAYMELSSLRSEDTAVYYCVRSGREFDYWGQGTLVTVSSASTKGPSVFPLAPSSKSTSGGTAALGCLVKDYFPEPVTVSWNSGALTSGVHTFPAVLQSSGLYSLSSVVTVPSSSLGTQTYICNVNHKPSNTKVDKKVEPKSCDKTHTCPPCPAPEYLGGPSVFLFPPKPKDTLMISRTPEVTCVVVDVSHEDPEVKFNWYVDGVEVHNAKTYPREEQWNSTYRVVSVLTVLHQDWLNGKEYKCKVSNKALPAPIEKTISKAKGQPREPQVCTLPPSRDELTKNQVSLWCLVKGFYPSDIAVEWESNGQPENNYKTTPPVLDSDGSFFLYSKLTVDKSRWQQGNVFSCSVMHEALHNHYTQKSLSLSP heavy 2: QDQLVQSGAEVKKPGASVKVSCKASGFNIKDTYIQWVRQAPGQGLEWMGRIDPLRKQTKYREKFEGRVTITADTSTNTAYMELSSLRSEDTAVYYCVRSGREFDYWGQGTLVTVSSASTKGPSVFPLAPSSKSTSGGTAALGCLVKDYFPEPVTVSWNSGALTSGVHTFPAVLQSSGLYSLSSVVTVPSSSLGTQTYICNVNHKPSNTKVDKKVEPKSCDKTHTCPPCPAPELLGGPDVFLFPPKPKDTLMISRTPEVTCVVVDVSHEDPEVKFNWYVDGVEVHNAKTKPREEQYNSTYRVVSVLTVLHQDWLNGKEYKCKVSNKALPMPIEVTISKAKGQPREPQVYTLPPSRCELTKNQVSLSCAVKGFYPSDIAVEWESNGQPENNYKTTPPVLDSDGSFFLVSKLTVDKSRWQQGNVFSCSVMHEALHNHYTQKSLSLSP light: DIQMTQSPSSLSASVGDRVTITCRASQDIHKYIAWYQQKPGQAPRLLIQYTSTLQPGVPSRFSGSGSGTDYTFTISSLQPEDIATYYCLQYEQLRTFGGGTKVEIKRTVAAPSVFIFPPSDEQLKSGTASVVCLLNNFYPREAKVQWKVDNALQSGNSQESVTEQDSKDSTYSLSSTLTLSKADYEKHKVYACEVTHQGLSSPVTKSFNRGEC"

# From patent US20150344570A1 (published 2015)
